This note sets out measurements from US20210277110A1 (Janssen / Centocor, published 2021).

By Kd is commonly meant the free concentration of one partner at which half of the binding sites on the other are occupied at equilibrium, for simple one-to-one binding. Higher therefore signals a looser complex. What is called koff is a measure of how fast the partners let go of each other. Higher therefore signals a short-lived complex. As a reminder, the kon is a measure of how fast the partners come together. The EC50 is the concentration needed to bring the measured effect to its halfway point.

Like-named read-outs stand apart in the source and are kept apart here.

For experiment [1], the target named is T1, Extracellular domain of cyno PD1 (cPD1-ECD) (Macaca fascicularis (cynomolgus)).
T1 construct: Expressed with a hexahistidine tag or as Fc fusion; also called cynoPD1-ECD; cynoPD-1-ECD
T1 chain: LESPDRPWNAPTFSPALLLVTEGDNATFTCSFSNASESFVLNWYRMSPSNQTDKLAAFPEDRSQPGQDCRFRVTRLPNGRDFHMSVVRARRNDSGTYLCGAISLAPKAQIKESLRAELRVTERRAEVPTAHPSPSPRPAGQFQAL
Kind of experiment: SPR ProteOn, captured mAb, cynoPD1-ECD analyte.
Method: (§1) Affinity measurements using Surface Plasmon Resonance (SPR) were performed using a ProteOn XPR36 system. A biosensor surface was prepared by coupling a mixture of anti-IgG Fc modified alginate polymer layer surface of a GLC chip using the manufacturer instructions for amine-coupling chemistry. […] The collected data were processed and fitted to a Langmuir 1:1 binding model. The result for each mAb was reported in the format of kₒₙ (On-rate), koff (Off-rate) and KD (equilibrium dissociation constant).
(§2) STDEV were calculated for 3 or more replicates generated for human and cyno proteins. If less than 3 replicates were calculated, RANGE was indicated. RANGE is defined as the low and high values for the replicates tested. For samples in the Table 10 or Table 11 without value indicated in RANGE or STDEV, only one experiment was performed.

In experiment [2] the target is T2, Full length human PD1 (huPD1) on cells (human, UniProt Q15116 25-288).
T2 construct: on T cells of human donors in the MLR and CMV assays (functional); also called PD-1 on Jurkat cells
Kind of experiment: flow cytometry, PHA-stimulated Jurkat cells.

Experiment [3] addresses T3, Extracellular domain of human PD1 (huPD1-ECD) (human, UniProt Q15116 25-169, biotinylated in the ligand inhibition assay (sites not given)).
T3 construct: Expressed with a hexahistidine tag or as Fc fusion; also called biotinylated PD-1
Kind of experiment: SPR ProteOn, captured mAb, huPD1-ECD analyte.

For experiment [4], the target named is T3, Extracellular domain of human PD1 …. Description: MSD ligand inhibition, competitor coated cynoPDL1-ECD.
Method: The ligand inhibition assay design was MSD (Mescoscale Discovery) based. A MSD plate was directly coated with ligand (cynoPDL1-ECD, huPDL1-ECD or huPDL2-ECD) and incubated overnight at 4° C. The following day, the coating solution was removed and the plate was blocked. […] Depending on the panel of antibodies to be tested, the antibodies were tested as titrations or at a fixed concentration. […] The mAbs that were positive for inhibition of ligand binding at one concentration were also tested in dose responses for inhibition of various PD-1 ligands.
Select Fabs were cloned as IgG2sigma isotype and characterized for their Jurkat cell binding and cynomolgus PD-L1 ligand inhibition at concentrations 1 μg/ml and 10 μg/ml.
The target in experiment [5] is T1, Extracellular domain of cyno PD1 …. Kind of experiment: SPR ProteOn, cynoPD1-ECD; RANGE high replicate.
The target is the same in experiment [6]. Kind of experiment: SPR ProteOn, cynoPD1-ECD; RANGE low replicate.
Experiment [7] has the same target. Kind of experiment: SPR ProteOn, cynoPD1-ECD; RANGE high replicate; RANGE high replicate.
Method: as §1, §2
For experiment [8] the target is unchanged. Kind of experiment: SPR ProteOn, captured mAb, cynoPD1-ECD analyte.
Method: as §1
(§3) STDEV were calculated for 3 or more replicates generated for human and cyno proteins. If less than 3 replicates were calculated, RANGE is indicated. RANGE is defined as the low and high values for the replicates tested. For samples without RANGE or STDEV, only one experiment was performed
Experiment [9] addresses T3, Extracellular domain of human PD1 …. Description: SPR ProteOn, captured mAb, huPD1-ECD analyte. This is another data set of the same source.
Method: as §1, §3

T2 sequence (Q15116 25-288 limits assumed): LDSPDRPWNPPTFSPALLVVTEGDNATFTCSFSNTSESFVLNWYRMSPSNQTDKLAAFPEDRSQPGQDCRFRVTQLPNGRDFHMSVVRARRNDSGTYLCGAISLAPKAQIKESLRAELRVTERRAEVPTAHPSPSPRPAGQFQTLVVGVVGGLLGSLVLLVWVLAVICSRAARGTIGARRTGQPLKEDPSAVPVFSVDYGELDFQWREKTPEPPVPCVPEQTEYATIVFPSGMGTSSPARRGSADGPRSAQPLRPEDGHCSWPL
T3 sequence (Q15116 25-169 limits assumed): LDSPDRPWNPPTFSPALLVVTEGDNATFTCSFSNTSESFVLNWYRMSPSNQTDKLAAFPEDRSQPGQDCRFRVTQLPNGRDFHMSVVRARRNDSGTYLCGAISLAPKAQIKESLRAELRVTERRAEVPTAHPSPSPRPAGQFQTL

B1: PD1B114 (antibody, human IgG2, kappa, V domains shown)
VH: QVQLVQSGAEVKKPGSSVKVSCKASGGTFSSYAISWVRQAPGQGLEWMGGIIPIFGTANYAQKFQGRVTITADESTSTAYMELSSLRSEDTAVYYCARPGLAAAYDTGNLDYWGQGTLVTVSS
VL: EIVLTQSPATLSLSPGERATLSCRASQSVSSYLAWYQQKPGQAPRLLIYDASNRATGIPARFSGSGSGTDFTLTISSLEPEDFAVYYCQQRSNWPLTFGQGTKVEIKR
notes: IgG2sigma/kappa; also called PD1H24/PH9L3
In experiment [1], B1 returned a dissociation constant Kd of 81.5 nM, a koff of 0.0239 s⁻¹ and an on-rate (kon) of 294000 M⁻¹ s⁻¹. The concentration for a half-maximal effect (EC50) in experiment [2] turned out to be 0.47 µg/mL. In experiment [3], this molecule showed a Kd of 54.1 nM, an off-rate constant (koff) of 0.0279 s⁻¹ and a kon of 517000 M⁻¹ s⁻¹. Further, in experiment [4], the “percentage ligand not blocked at 1 µg/ml” value is 8% and the “percentage ligand not blocked at 10 µg/ml” value is 13%.

B2: PD1B160 (antibody, human IgG2, kappa, V domains shown)
VH: QVQLVQSGAEVKKPGSSVKVSCKASGGTFSSYAISWVRQAPGQGLEWMGGIIPIFDTANYAQKFQGRVTITADESTSTAYMELSSLRSEDTAVYYCARPGLAAAYDTGNLDYWGQGTLVTVSS
VL: EIVLTQSPATLSLSPGERATLSCRASQSVDSYLAWYQQKPGQAPRLLIKDASDRATGIPARFSGSGSGTDFTLTISSLEPEDFAVYYCQQRGNWPLTFGQGTKVEIKR
notes: IgG2sigma/kappa; VH 42, VL 51; also called PD1H131/PD1L101
In experiment [1], B2 gave a Kd of 5.23 nM, a koff of 0.00166 s⁻¹ and a kon of 317000 M⁻¹ s⁻¹. Further, in experiment [5], the Kd came out at 5.3 nM, the off-rate constant (koff) was found to be 0.00168 s⁻¹ and the kon worked out at 317000 M⁻¹ s⁻¹. Also, the midpoint of the response in experiment [2], the EC50, lay at 0.08 µg/mL. In experiment [6], this molecule came in with a Kd of 5.1 nM, a koff of 0.00163 s⁻¹ and an on-rate constant (kon) of 316000 M⁻¹ s⁻¹. In experiment [3], this molecule had a dissociation constant Kd of 6.87 nM, a dissociation rate constant (koff) of 0.00371 s⁻¹ and an association rate constant (kon) of 540000 M⁻¹ s⁻¹. In experiment [4], the “percentage ligand not blocked at 1 µg/ml” value was 4% and the “percentage ligand not blocked at 10 µg/ml” value was 3%.

B3: PD1B183 (antibody, human IgG2, kappa, V domains shown)
VH: QVQLVQSGAEVKKPGSSVKVSCKASGGTFSSYAISWVRQAPGQGLEWMGGIIPIFGTANYAQKFQGRVTITADESTSTAYMELSSLRSEDTAVYYCARPGLAAAYDTGSLDYWGQGTLVTVSS
VL: EIVLTQSPATLSLSPGERATLSCRASQSVSSYLAWYQQKPGQAPRLLIKDASNRATGIPARFSGSGSGTDFTLTISSLEPEDFAVYYCQQRGYWPLTFGQGTKVEIKR
notes: IgG2sigma/kappa; VH 43, VL 54; also called PD1H3/PD1L109
For the molecule B3, the Kd amounted to 26.3 nM in [1], 28.8 nM in experiment [5], 23.9 nM in experiment [6] and 16 nM in experiment [3]. The dissociation rate constant (koff) in experiment [1] is 0.00839 s⁻¹; in experiment [7] it was 0.00876 s⁻¹; in [6], 0.00801 s⁻¹; in [3] it was 0.00844 s⁻¹. The association rate constant (kon) came to 320000 M⁻¹ s⁻¹ in experiment [1], 337000 M⁻¹ s⁻¹ in experiment [7], 304000 M⁻¹ s⁻¹ in experiment [6] and 527000 M⁻¹ s⁻¹ in experiment [3]. The same molecule registered a concentration giving a half-maximal response (EC50) in experiment [2] of 0.08 µg/mL. In addition, in experiment [4], the “percentage ligand not blocked at 1 µg/ml” value is 5%. The “percentage ligand not blocked at 10 µg/ml” value in [4] amounted to 5%.

B4: PD1B177 (antibody, V domains shown)
VH: QVQLVQSGAEVKKPGSSVKVSCKASGGTFSDYVISWVRQAPGQGLEWMGGIIPIYGTANYAQKFQGRVTITADESTSTAYMELSSLRSEDTAVYYCARGTLDRTGHLDYWGQGTLVTVSS
VL: EIVLTQSPATLSLSPGERATLSCRASQSVSSYLAWYQQKPGQAPRLLIYDASNRATGIPARFSGSGSGTDFTLTISSLEPEDFAVYYCQQRSNWPLTFGQGTKVEIK
notes: Tested as IgG2sigma; also called PD1H164/PH9L3
For B4, the Kd in experiment [1] was determined as 6.47 nM; in experiment [5] it was 6.9 nM; in experiment [6], 6.1 nM; in [3], 5 nM. The koff worked out at 0.00189 s⁻¹ in experiment [1], 0.00193 s⁻¹ in experiment [7], 0.00184 s⁻¹ in experiment [6] and 0.00257 s⁻¹ in experiment [3]. Besides, the kon is 292000 M⁻¹ s⁻¹ in [1], 304000 M⁻¹ s⁻¹ in [7], 280000 M⁻¹ s⁻¹ in experiment [6] and 515000 M⁻¹ s⁻¹ in experiment [3]. The EC50 in [2] amounted to 0.05 µg/mL. The “percentage ligand not blocked at 1 µg/ml” value in [4] is 7%. In addition, the “percentage ligand not blocked at 10 µg/ml” value in [4] came out at 8%.

B5: PD1B198 (antibody, V domains shown)
VH: QVQLVQSGAEVKKPGSSVKVSCKASGGTFKSYVIHWVRQAPGQGLEWMGGIIPIFGTANYAQKFQGRVTITADESTSTAYMELSSLRSEDTAVYYCARGYVRATGMLDYWGQGTLVTVSS
VL: EIVLTQSPATLSLSPGERATLSCRASQSVSSYLAWYQQKPGQAPRLLIEDASSRATGIPARFSGSGSGTDFTLTISSLEPEDFAVYYCQQRAEWPLTFGQGTKVEIK
notes: also called PD1H163/PD1L187
In experiment [8], B5 gave a Kd of 11.2 nM, a dissociation rate constant (koff) of 0.00416 s⁻¹ and a kon of 372000 M⁻¹ s⁻¹. In experiment [9], binding was put at a Kd of 10.4 nM, the off-rate (koff) is 0.00934 s⁻¹ and the kon worked out at 895000 M⁻¹ s⁻¹.

B6: PD1B187 (antibody, V domains shown)
VH: QVQLVQSGAEVKKPGSSVKVSCKASGGTFSSYAISWVRQAPGQGLEWMGGIIPIFGTANYAQKFQGRVTITADESTSTAYMELSSLRSEDTAVYYCARPGLAAAYDTGSLDYWGQGTLVTVSS
VL: EIVLTQSPATLSLSPGERATLSCRASQSVRSYLAWYQQKPGQAPRLLIYDASNRATGIPARFSGSGSGTDFTLTISSLEPEDFAVYYCQQRNYWPLTFGQGTKVEIK
notes: Tested as IgG2sigma; also called PD1H3/PD1L148
Consider B6, for which the Kd in [1] is 5.32 nM; in [5], 8.4 nM; in experiment [6] it was 3.5 nM; in [3], 5.2 nM. The koff came to 0.00157 s⁻¹ in experiment [1], 0.00185 s⁻¹ in experiment [7], 0.00128 s⁻¹ in [6] and 0.00278 s⁻¹ in experiment [3]. In addition, the kon in experiment [1] is 294000 M⁻¹ s⁻¹; in experiment [7], 370000 M⁻¹ s⁻¹; in [6], 220000 M⁻¹ s⁻¹; in [3] it was 535000 M⁻¹ s⁻¹. Also, in [2], the EC50 was found to be 0.09 µg/mL. In addition, the “percentage ligand not blocked at 1 µg/ml” value in [4] turned out to be 7%. In [4], the “percentage ligand not blocked at 10 µg/ml” value is 5%.

B7: PD1B197 (antibody, V domains shown)
VH: QVQLVQSGAEVKKPGSSVKVSCKASGGTFKSYVIHWVRQAPGQGLEWMGGIIPIFGTANYAQKFQGRVTITADESTSTAYMELSSLRSEDTAVYYCARGYVRATGMLDYWGQGTLVTVSS
VL: EIVLTQSPATLSLSPGERATLSCRASQSVSNYLAWYQQKPGQAPRLLIYDASNRATGIPARFSGSGSGTDFTLTISSLEPEDFAVYYCQQRAYWPLTFGQGTKVEIK
notes: also called PD1H163/PD1L185
In experiment [8], B7 gave a Kd of 4.6 nM, a koff of 0.00126 s⁻¹ and a kon of 275000 M⁻¹ s⁻¹. In experiment [9], this molecule displayed a Kd of 4.9 nM, an off-rate (koff) of 0.00324 s⁻¹ and a kon of 658000 M⁻¹ s⁻¹.

B8: PD1B194 (antibody, V domains shown)
VH: QVQLVQSGAEVKKPGSSVKVSCKASGGTFSSYAISWVRQAPGQGLEWMGGIIPIFDTANYAQKFQGRVTITADESTSTAYMELSSLRSEDTAVYYCARPGLAAAYDTGSLDYWGQGTLVTVSS
VL: EIVLTQSPATLSLSPGERATLSCRASQSVRSYLAWYQQKPGQAPRLLIYDASYRATGIPARFSGSGSGTDFTLTISSLEPEDFAVYYCQQRDYWPLTFGQGTKVEIK
notes: also called PD1H170/PD1L71
On to B8, for which, in experiment [8], the Kd came out at 0.6 nM, the dissociation rate constant (koff) stood at 0.000193 s⁻¹ and the on-rate constant (kon) amounted to 322000 M⁻¹ s⁻¹. Besides, in experiment [9], binding was put at a Kd of 1.07 nM, the off-rate (koff) came out at 0.00096 s⁻¹ and the kon stood at 897000 M⁻¹ s⁻¹.
